Test results published in the supplement of paper PMC10567573.

B1: DULLARD (parent)
chain: LVVFTASMEIYGSAVADKLDNSRS

Variants of: B1
Test: protein stability index of a GFP-peptide fusion (GPS, HEK-293T) (PSI 1-6); higher = more stable
Settings: c terminus: a fixed tail appended
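Further: lentivirally expressed fusions sorted by FACS into six bins by GFP to DsRed ratio, PSI derived from sequencing read proportions per bin multiplied by bin number.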

Protein stability index of substitutions, site by site:
L19: I 1.62; P 2.23; Q 2.45; S 2.02; M 2.41; R 1.87; E 2.17; N 1.23; H 1.54; D 1.73; F 2.41; W 2.27; Y 3.37; K 1.66
K18: Q 2.49; L 2.77; D 2.94; I 4.09; H 1.88; Y 1.55; V 2.79; M 2.11; G 1.99; N 2.74
V15: S 2.48; N 1.87; C 1.95; H 1.82; E 2.32; A 2; Y 1.87; I 3.03; T 1.66; G 2.14; K 2.26; D 1.11; L 1.48; R 3.02
Y11: P 2.01; K 1.51; I 2.51; G 1.97; E 2.44; R 1.88; D 1.38; N 3.21; Q 2.07; S 2.13; M 1.56; A 3.03; H 1.58; C 2.48
D20: K 1.88; E 1.97; C 1.69; H 1.99; A 3.32
I10: E 1.5; K 2.05; A 1.05; V 2.24; M 1.28; N 1.98; T 1.87; P 2.16; Q 1.62; Y 1.92; S 1.05; F 2.94; L 1.34; C 1.75; H 1.44
S7: F 2.06; M 2.8; G 1.24; A 1.85; H 3.69; V 2.27; K 2.07; C 3.12; P 1.93; N 2.14; T 2.48; D 1.55; I 4.7
G12: P 2.37; W 2.26; F 2.79; T 2.86; V 3.44; Q 1.85; E 1.45; L 2.98
A14: T 3.78; E 1.04; S 2.32; Q 1.99; C 2.02; N 2.84; D 1.19; V 1.69; P 1.73; R 4.28
M8: T 1.82; W 1.05; R 1.9; V 2.73; Q 1.49; Y 2.64; G 1.31; K 1.96; I 4.57; A 1.59; F 3.03; C 1.14; E 1.83; P 1.18; S 1.02; H 2.98; L 2.01; N 1.65; D 2.65
S13: A 2.72; R 2.84; I 2.46; Q 1.29; T 2.42; G 1.68; Y 2.58; C 2.05; P 2.48; E 1.36; D 2.37
D17: Y 2.6; H 3; L 3.58; V 1.97; R 2.48; K 2.26
E9: N 1.74; V 3; P 3.01; A 2.72; F 2.73; L 3.73; C 2.96; D 2.27; R 2.71; W 2.46
A16: P 3.45; H 3.11; D 3.11; I 2.93; K 2.89; Q 2.02; N 1.46; E 2.34; R 3.75; F 4.14
A6: Y 2.47; P 1.43; N 1.53; T 2.8; Q 2.02; L 2.11; R 2.08; K 1.41
